Results from the NTF2 design screens of Basanta et al. (2020).

Assay: protease stability score; higher = more stable; yeast display proteolysis, trypsin and chymotrypsin;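 also: relative to predicted unfolded state with 0 unfolded-like and 1 meaning tenfold more protease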

Question: Which protease stability score does the source give for “SELIKVSRHAMEILVHSWLTGDWERSEELVDPHARTQYGDKHVHGMELFEEIFKEELDRVKGMRLEIIIRRVDLQGNKAEVDGEFRNHVNGVDVRRRMHVELVVVNGVVESTSIRIQ” here?
Answer: The protease stability score was 0.453.

Question: For “SEEERDTIEFARLWLENYLTGDEETMKELADPRTLSTFRFENHHLHLHGMHLHFTWLHQIRIRHFQPREVSVVNGKTTIDGEYHGEVGDKSHTTRVIIRLEIVNGKIKSVEIEVK”, which protease stability score is on record?
Answer: The protease stability score was 1.07.

Question: For “DEDEQELRDALERWIRAMYTGDEKTLRDLIDPNVLIDINGKIIHGRHKLSQHLREIRIHHFEMHIEDYRFQGDKVHMDVREKRHWVIGDKHIDESRSVTLIIVKFDGRWLMHRVIVH”, which protease stability score is on record?
Answer: Its protease stability score is 1.19.

Question: Which protease stability score does the source give for “DEEERLQEELTKRLIHDFETGDFEAILELFDPHVRVFVNGKDDHGWEMLERSWREMGIDHMQIRDFELHHINGRLEVRIRTEIRVGDKTMDTIIILNVQKYDGRWRIHKVEITIR” here?
Answer: Its protease stability score is 1.24.

Question: Which protease stability score does the source give for “DEDHDVYHRLVKITLSLLATGDESWMKKLFDPHVRVNINGVDVHGREWLLKLFRLLLERLGVDHMTAHVHDFRQYDGRVHADTTEVYDVDGREIRFKTEVIIDKFNGRWFVTFVIII” here?
Answer: Its protease stability score is 1.78.

Question: With “TEEEELRRRHAKELLDIWRTGDEHLMSHLADPHVRSIIDGVTVIGRDEWMKYLRILREHLGVKHIEHKDFNIQGDKVDVHGTMHVNGREIEVRSHFYVIDGRVRSNEIRFH” as the sequence, how does the protease stability score read?
Answer: Its protease stability score is 0.256.

Question: For “DEVEKSVKEWVNIVIHWLKTGNEEEILKYADPNVRLNVNGVNYVGRENAEHASREHLHELGIKHEEQKDVKIHSINGRMLLIIHMRLEYDGQHHEVTIIVRTIKINGRWHIHEVEIRND”, which protease stability score is on record?
Answer: Its protease stability score is 1.21.

Question: With “DELEENSRLALELWINSFLTGDEDTTEKMADPHVRLIIDGKLFHGREAFSEHMLERSLRADHTEVRLHDRKIVGDKLIIDTRIHSHVNGVDVTLNVLLIMHKYDGRWRIHSVEIH” as the sequence, how does the protease stability score read?
Answer: The protease stability score was 1.23.

Question: With “SDDEEDVWRMAEIILKLFYTGDEEKFRNLADPNVRLNFNGRNFIGRENLEKHLRELRIHRIELREMDLKVINGRAEVRVRGFVDGEIDGQRYHSEVRLIMIITKVDGRWIIESIEFEQL” as the sequence, how does the protease stability score read?
Answer: The protease stability score was 2.59.

Question: Which protease stability score does the source give for “SEEEELIEYILELWMHAYVTGDEDVVHEMADPNVRIQVGDKKFIGRKTFSETIHELLNRVDHFRLHIRDYKVINGKAIMHIELHYRVNGKDIHHHVDIDVHKINGRWIVKSIHYR” here?
Answer: The protease stability score was 1.83.

Question: For “DEHEEISRRLAEFENEWINTGDEESFARNADPDVRIHVGEFHSHGREEMIRILKEFFRWLGVKHFRPTHIEIQGEKVIIYLEWHFDGRTHRIQIISVVVDGRRKSFQVHKL”, which protease stability score is on record?
Answer: The protease stability score was 0.185.

Question: For “TEDEEKSHEFVHRLSHSVMTGDWKDIKRLADPNMKSRVNGREIHGWDKTKRMLDEEEEQLGVSRFEFDLKRVDTQGDKLFIDMRMKVNGRTLEVTYHVEKVNGRWLVTEFHIL”, which protease stability score is on record?
Answer: The protease stability score was 0.555.

Question: Which protease stability score does the source give for “DEQEELSQLLAEIVIELTKTGDEHTLERLMDPHVRANINGVELHGRKKVREFLEEWLRRVKNVRLHIDDRTVQGEKIIVDGTWNVGDKSFRIEFIVIIINGRHTSFNVLDI” here?
Answer: The protease stability score was 1.51.

Question: With “DDEDREAQELLNLYLHAHRTGDEHLLDELVDPHARIIVNGQEIHGRDFLEYLKKFWGITNVNIDIHIDDLKLYDGRIEVETRLILEINGQRYTYSSHEHWHKVNGKWISKRVDFE” as the sequence, how does the protease stability score read?
Answer: The protease stability score was 1.05.

Question: With “DEHEEEVREMHRVWVELLRTGDWRILAEMFDPNVRMHIGDKEHHGREAIEIHIEKFKNVRLEITRVHIQGEYIVIEGVINIDGKTHTLRFHFVLVNGRLKQYDEHSE” as the sequence, how does the protease stability score read?
Answer: Its protease stability score is 2.

Question: For “SEDEQQALEIIRQWVEFVRTGDEDSVRRLLDPNVRYEVNGREFHGRELVVRILWEIVYHLGVKHVDNKVEHMEIQGEFVKVETTMILRYNGRTLYIDTRIIIFKIDGRWVFRSIEEK”, which protease stability score is on record?
Answer: The protease stability score was 1.63.

Question: Which protease stability score does the source give for “DEDEEEAEERVKEWIKALRTGDEDHILELVDPNDRFIINGVHLHGREFLLRWLRELRVDDVEVKTIKFVDGVAHVDTKMRVTVDGRETELETRLIWKKFDGRWFIESHRIR” here?
Answer: Its protease stability score is 1.62.

Question: For “SEDEKMFKEMKDLLLEILRTGDEDSWSHLADPDYRMDINGRIDHGMEEASRSLTEFLRKLGIDHLDIKDSKVTLVNGRAIIILHEETKVNGRKFNLRIINIVSKVNGKWSIESFSMSIE”, which protease stability score is on record?
Answer: The protease stability score was 1.29.

Question: For “DERDEMTDHALQRVHEMLLTGDERLLSELFDPNARSQIGDKHVHGRDEVAKTFTEQLEKLGVDHVHFRSVDIQGEKLIIHMHFRVGDKHFQVIIIIVKVNGRWYWTNMHVILH”, which protease stability score is on record?
Answer: The protease stability score was 1.1.

Question: With “DEQEDRDMKKMYKNLQEGDDQRVADMADPNARWRVGDKTYHGKDSIRHWAKEVHDRMHFRIQSITVQNENGKVKVEIKWVTDENGKPVDQTVQVKAELHNGHIVDIDITTQS” as the sequence, how does the protease stability score read?
Answer: Its protease stability score is 0.098.

Question: For “DETERDVREAVRIWNEDVETGNEESLLRLIDPHVRLVINGQTFHGMESMLEVLNEFLKHIRVEHIEVKRIEIQGDKAIIDTNMDIEIDGKRKQKKTTLIIRKFNGRWHLSLVEIR”, which protease stability score is on record?
Answer: Its protease stability score is 1.86.

Question: For “SEDDEKLEQIIELLDKVMKTGDERAYNELMDPNTRYQVGDKEFHGMEWWSEIYSRHEKKLGIEKVEVDIENHHVQGDKVTVHGRVNINGREHEYRFVLTKVDGQWRLREENIK”, which protease stability score is on record?
Answer: The protease stability score was 1.15.

Question: For “DEDKEEAVRIIHEWSHAVFTGDFERELRLADPNVRLIINGRDFHGWHSLRELLNHMRLKTHHTDVKRSRSQGDFVEIDGLFNFTIHFNGRDLNVITDVKVVINKIDGRWKIESVHYE”, which protease stability score is on record?
Answer: The protease stability score was 1.18.

Question: Which protease stability score does the source give for “DEHRKLIEELAEKLIEALWTGDERRIRELADPNVRMDYGEFKIHGRDLMVETLKHEMKKFKNVRLINHHVTVQGEFINIDMEVRFDGVSHRVEHNWDVVNGVVKEVRIEKN” here?
Answer: The protease stability score was 1.09.

Question: Which protease stability score does the source give for “DELEQLAREVWETLRRAELTGDENRIHEMLDPNVRVDINGRESHGWDSFIYLLRELRFEDMHERDYRIRDVNGRLEITVTGDLEGEFNGKHFNRHTVIIIILEKYDGRWKVHEVKIELR” here?
Answer: Its protease stability score is 2.19.
